This series deals with the molecule itself. As to the kind of experiment: crystal structure; SeMet-DnaJ_(Δ108–114/4M), SeMet-SAD phasing, 2.9 Å; two dimers in the asymmetric unit; crystals from 14–16% PEG 6000, 0.1 M succinate/BTP pH 7.0 with adenine nucleotides.

B1: SeMet-DnaJ_(Δ108–114/4M), Thermus thermophilus DnaJ lacking residues 108–114 with four residues substituted by methionine (natural protein, UniProt Q56237 1-280, looked up)
chain: MAAKKDYYAILGVPRNATQEEIKRAYKRLARQYHPDVNKSPEAEEKFKEINEAYAVMSDPEKRRIYDTYGTTEAPPPPPPGGYDFSGFDVEDFSEFFQELFGPGLFGKGRDLRAELPLTLEEAFHGGERVVEVAGRRVSVRMPPGVREGSVIRVPGMGGQGNPPGDLLLVVRMLPHPVFRLEGQDLYATLDVPAPIAVVGGKVRAMTLEGPVEVAVPPRTQAGRKMRLKGKGFPGPAGRGDLYLEVRITIPERLTPEEEALWKKLAEAYYARA
modifications: selenomethionine in place of methionine
notes: DnaJ (type II DnaJ, Hsp40 homologue) of Thermus thermophilus with J, GF and C-terminal domains; chains A-D of the model hold residues 2-272; Cloned NcoI/NotI into pET24d; also called DnaJ_(108114/4M); source: E. coli BL21(DE3) in minimal medium with L-selenomethionine, purified (heat denaturation, Ni-NTA, Superdex 200)
For the protein B1, the binding result was “binds”.
